Experimental data published in US20100113355A1.

Key:
[1] = target: T1, Biotin-… antigenic peptide (epitope sequence from candidal Hsp90) (Candida ("candidal Hsp90")); assay: ELISA, biotinylated hsp90 peptide on streptavidin plate, anti-His-HRP detection; % activity against Mycograb reference standard; site 2; sample in 0.5 M urea, 0.2 M L-arginine pH 9.5
[2] = target: T1, Biotin-… antigenic peptide (epitope …); assay: ELISA, biotinylated hsp90 peptide on streptavidin plate, anti-His-HRP detection; % activity against Mycograb reference standard; site 2; sample in 50 mM Tris, pH 9.0
[3] = target: T1, Biotin-… antigenic peptide (epitope …); assay: ELISA, biotinylated hsp90 peptide on streptavidin plate, anti-His-HRP detection; % activity against Mycograb reference standard; site 1; sample in 50 mM Tris, 3 mM DTT, pH 9.0
[4] = target: T1, Biotin-… antigenic peptide (epitope …); assay: ELISA, biotinylated hsp90 peptide on streptavidin plate, anti-His-HRP detection; % activity against Mycograb reference standard; site 1; sample in 0.5 M urea, 0.2 M L-arginine pH 9.5
[5] = target: T1, Biotin-… antigenic peptide (epitope …); assay: ELISA, biotinylated hsp90 peptide on streptavidin plate, anti-His-HRP detection; % activity against Mycograb reference standard; site 1; sample in 50 mM Tris, 1 M sucrose, ~0.2% Tween20, 3 mM DTT, pH 3.0
[6] = target: T1, Biotin-… antigenic peptide (epitope …); assay: ELISA, biotinylated hsp90 peptide on streptavidin plate, anti-His-HRP detection; % activity against Mycograb reference standard; site 1; sample in 50 mM Tris, pH 9.0
[7] = target: T1, Biotin-… antigenic peptide (epitope …); assay: ELISA, biotinylated hsp90 peptide on streptavidin plate, anti-His-HRP detection; % activity against Mycograb reference standard; site 2; sample in 50 mM Tris, 3 mM DTT, pH 9.0
[8] = target: T1, Biotin-… antigenic peptide (epitope …); assay: ELISA, biotinylated hsp90 peptide on streptavidin plate, anti-His-HRP detection; % activity against Mycograb reference standard; site 2; sample in 50 mM Tris, 1 M sucrose, ~0.2% Tween20, 3 mM DTT, pH 3.0

- ELISA Site 2 [%] (activity compared with the reference) [1]: 78%
- ELISA Site 2 [%] (activity compared with the reference) [2]: 95%
- ELISA Site 1 [%] (activity compared with the reference) [3]: 85%
- ELISA Site 1 [%] (activity compared with the reference) [4]: 90%
- ELISA Site 1 [%] (activity compared with the reference) [5]: 135%
- ELISA Site 1 [%] (activity compared with the reference) [6]: 71%
- ELISA Site 2 [%] (activity compared with the reference) [7]: 131%
- ELISA Site 2 [%] (activity compared with the reference) [8]: 130%
B1: MYC123 ("wild type" Mycograb) scFv peptide (scFv)
scFv: MAEVQLVESGAEVKKPGESLRISCKGSGCIISSYWISWVRQMPGKGLEWMGKIDPGDSYINYSPSFQGHVTISADKSINTAYLQWNSLKASDTAMYYCARGGRDFGDSFDYWGQGTLVTVSSGGGGSGGGGSGGGGSDVVMTQSPSFLSAFVGDRITITCRASSGISRYLAWYQQAPGKAPKLLIYAASTLQTGVPSRFSGSGSGTEFTLTINSLQPEDFATYYCQHLNSYPLTFGGGTKVDIKRAAALEHHHHHH
